Test results taken from patent US20250368745A1 (published 2025).

T1: human IL-18BP (human, UniProt O95998 31-194)
T1 construct: UniProt printed as 095998; also called hIL-18BP
T1 sequence: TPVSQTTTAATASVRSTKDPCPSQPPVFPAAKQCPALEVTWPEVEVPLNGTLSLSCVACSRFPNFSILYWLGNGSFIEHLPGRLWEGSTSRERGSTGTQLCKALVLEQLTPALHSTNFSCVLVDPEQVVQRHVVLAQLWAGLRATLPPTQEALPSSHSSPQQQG

B1: SA301a HC-S56M (antibody, name in Kabat numbering, V domains shown)
VH: QVQLQESGPGLVKPSQTLSLTCTVSGYSITSDYNSHWIRQPPGKGLEWIGYIHYSGMTNYNPSLKSRVTISRDTSKNQFSLKLSSVTAADTAVYYCARNYGSIYVNYFDYWGQGTLVTVSS
VL: EIVLTQSPATLSLSPGERATLSCSASSSVSYMYWYQQKPGQAPRPLIYRTSNLASGIPARFSGSGSGTDFTLTISSLEPEDFAVYYCQQYHSYPTFGGGTKVEIK
notes: IgG1 kappa
B2: SA301a HC-S56T (antibody, name in Kabat numbering, V domains shown)
VH: QVQLQESGPGLVKPSQTLSLTCTVSGYSITSDYNSHWIRQPPGKGLEWIGYIHYSGTTNYNPSLKSRVTISRDTSKNQFSLKLSSVTAADTAVYYCARNYGSIYVNYFDYWGQGTLVTVSS
VL: EIVLTQSPATLSLSPGERATLSCSASSSVSYMYWYQQKPGQAPRPLIYRTSNLASGIPARFSGSGSGTDFTLTISSLEPEDFAVYYCQQYHSYPTFGGGTKVEIK
notes: IgG1 kappa
B3: SA301a HC-S56V (antibody, name in Kabat numbering, V domains shown)
VH: QVQLQESGPGLVKPSQTLSLTCTVSGYSITSDYNSHWIRQPPGKGLEWIGYIHYSGVTNYNPSLKSRVTISRDTSKNQFSLKLSSVTAADTAVYYCARNYGSIYVNYFDYWGQGTLVTVSS
VL: EIVLTQSPATLSLSPGERATLSCSASSSVSYMYWYQQKPGQAPRPLIYRTSNLASGIPARFSGSGSGTDFTLTISSLEPEDFAVYYCQQYHSYPTFGGGTKVEIK
notes: IgG1 kappa
B4: SA301a HC-T57M (antibody, name in Kabat numbering, V domains shown)
VH: QVQLQESGPGLVKPSQTLSLTCTVSGYSITSDYNSHWIRQPPGKGLEWIGYIHYSGSMNYNPSLKSRVTISRDTSKNQFSLKLSSVTAADTAVYYCARNYGSIYVNYFDYWGQGTLVTVSS
VL: EIVLTQSPATLSLSPGERATLSCSASSSVSYMYWYQQKPGQAPRPLIYRTSNLASGIPARFSGSGSGTDFTLTISSLEPEDFAVYYCQQYHSYPTFGGGTKVEIK
notes: IgG1 kappa
B5: SA301a HC-T57Y (antibody, name in Kabat numbering, V domains shown)
VH: QVQLQESGPGLVKPSQTLSLTCTVSGYSITSDYNSHWIRQPPGKGLEWIGYIHYSGSYNYNPSLKSRVTISRDTSKNQFSLKLSSVTAADTAVYYCARNYGSIYVNYFDYWGQGTLVTVSS
VL: EIVLTQSPATLSLSPGERATLSCSASSSVSYMYWYQQKPGQAPRPLIYRTSNLASGIPARFSGSGSGTDFTLTISSLEPEDFAVYYCQQYHSYPTFGGGTKVEIK
notes: IgG1 kappa
B6: SA301a HC-S56R (antibody, name in Kabat numbering, V domains shown)
VH: QVQLQESGPGLVKPSQTLSLTCTVSGYSITSDYNSHWIRQPPGKGLEWIGYIHYSGRTNYNPSLKSRVTISRDTSKNQFSLKLSSVTAADTAVYYCARNYGSIYVNYFDYWGQGTLVTVSS
VL: EIVLTQSPATLSLSPGERATLSCSASSSVSYMYWYQQKPGQAPRPLIYRTSNLASGIPARFSGSGSGTDFTLTISSLEPEDFAVYYCQQYHSYPTFGGGTKVEIK
notes: IgG1 kappa
B7: SA301a HC-S56Y (antibody, name in Kabat numbering, V domains shown)
VH: QVQLQESGPGLVKPSQTLSLTCTVSGYSITSDYNSHWIRQPPGKGLEWIGYIHYSGYTNYNPSLKSRVTISRDTSKNQFSLKLSSVTAADTAVYYCARNYGSIYVNYFDYWGQGTLVTVSS
VL: EIVLTQSPATLSLSPGERATLSCSASSSVSYMYWYQQKPGQAPRPLIYRTSNLASGIPARFSGSGSGTDFTLTISSLEPEDFAVYYCQQYHSYPTFGGGTKVEIK
notes: IgG1 kappa
B8: SA301a HC-T57S (antibody, name in Kabat numbering, V domains shown)
VH: QVQLQESGPGLVKPSQTLSLTCTVSGYSITSDYNSHWIRQPPGKGLEWIGYIHYSGSSNYNPSLKSRVTISRDTSKNQFSLKLSSVTAADTAVYYCARNYGSIYVNYFDYWGQGTLVTVSS
VL: EIVLTQSPATLSLSPGERATLSCSASSSVSYMYWYQQKPGQAPRPLIYRTSNLASGIPARFSGSGSGTDFTLTISSLEPEDFAVYYCQQYHSYPTFGGGTKVEIK
notes: IgG1 kappa
B9: SA301a HC-T57K (antibody, name in Kabat numbering, V domains shown)
VH: QVQLQESGPGLVKPSQTLSLTCTVSGYSITSDYNSHWIRQPPGKGLEWIGYIHYSGSKNYNPSLKSRVTISRDTSKNQFSLKLSSVTAADTAVYYCARNYGSIYVNYFDYWGQGTLVTVSS
VL: EIVLTQSPATLSLSPGERATLSCSASSSVSYMYWYQQKPGQAPRPLIYRTSNLASGIPARFSGSGSGTDFTLTISSLEPEDFAVYYCQQYHSYPTFGGGTKVEIK
notes: IgG1 kappa
B10: SA301a HC-S56P (antibody, name in Kabat numbering, V domains shown)
VH: QVQLQESGPGLVKPSQTLSLTCTVSGYSITSDYNSHWIRQPPGKGLEWIGYIHYSGPTNYNPSLKSRVTISRDTSKNQFSLKLSSVTAADTAVYYCARNYGSIYVNYFDYWGQGTLVTVSS
VL: EIVLTQSPATLSLSPGERATLSCSASSSVSYMYWYQQKPGQAPRPLIYRTSNLASGIPARFSGSGSGTDFTLTISSLEPEDFAVYYCQQYHSYPTFGGGTKVEIK
notes: IgG1 kappa
B11: SA301a HC-T57Q (antibody, name in Kabat numbering, V domains shown)
VH: QVQLQESGPGLVKPSQTLSLTCTVSGYSITSDYNSHWIRQPPGKGLEWIGYIHYSGSQNYNPSLKSRVTISRDTSKNQFSLKLSSVTAADTAVYYCARNYGSIYVNYFDYWGQGTLVTVSS
VL: EIVLTQSPATLSLSPGERATLSCSASSSVSYMYWYQQKPGQAPRPLIYRTSNLASGIPARFSGSGSGTDFTLTISSLEPEDFAVYYCQQYHSYPTFGGGTKVEIK
notes: IgG1 kappa
B12: SA301a HC-T57R (antibody, name in Kabat numbering, V domains shown)
VH: QVQLQESGPGLVKPSQTLSLTCTVSGYSITSDYNSHWIRQPPGKGLEWIGYIHYSGSRNYNPSLKSRVTISRDTSKNQFSLKLSSVTAADTAVYYCARNYGSIYVNYFDYWGQGTLVTVSS
VL: EIVLTQSPATLSLSPGERATLSCSASSSVSYMYWYQQKPGQAPRPLIYRTSNLASGIPARFSGSGSGTDFTLTISSLEPEDFAVYYCQQYHSYPTFGGGTKVEIK
notes: IgG1 kappa
B13: SA301a HC-T57L (antibody, name in Kabat numbering, V domains shown)
VH: QVQLQESGPGLVKPSQTLSLTCTVSGYSITSDYNSHWIRQPPGKGLEWIGYIHYSGSLNYNPSLKSRVTISRDTSKNQFSLKLSSVTAADTAVYYCARNYGSIYVNYFDYWGQGTLVTVSS
VL: EIVLTQSPATLSLSPGERATLSCSASSSVSYMYWYQQKPGQAPRPLIYRTSNLASGIPARFSGSGSGTDFTLTISSLEPEDFAVYYCQQYHSYPTFGGGTKVEIK
notes: IgG1 kappa
B14: SA301a HC-T57E (antibody, name in Kabat numbering, V domains shown)
VH: QVQLQESGPGLVKPSQTLSLTCTVSGYSITSDYNSHWIRQPPGKGLEWIGYIHYSGSENYNPSLKSRVTISRDTSKNQFSLKLSSVTAADTAVYYCARNYGSIYVNYFDYWGQGTLVTVSS
VL: EIVLTQSPATLSLSPGERATLSCSASSSVSYMYWYQQKPGQAPRPLIYRTSNLASGIPARFSGSGSGTDFTLTISSLEPEDFAVYYCQQYHSYPTFGGGTKVEIK
notes: IgG1 kappa
B15: SA301a HC-T57F (antibody, name in Kabat numbering, V domains shown)
VH: QVQLQESGPGLVKPSQTLSLTCTVSGYSITSDYNSHWIRQPPGKGLEWIGYIHYSGSFNYNPSLKSRVTISRDTSKNQFSLKLSSVTAADTAVYYCARNYGSIYVNYFDYWGQGTLVTVSS
VL: EIVLTQSPATLSLSPGERATLSCSASSSVSYMYWYQQKPGQAPRPLIYRTSNLASGIPARFSGSGSGTDFTLTISSLEPEDFAVYYCQQYHSYPTFGGGTKVEIK
notes: IgG1 kappa
B16: SA301a HC-T57I (antibody, name in Kabat numbering, V domains shown)
VH: QVQLQESGPGLVKPSQTLSLTCTVSGYSITSDYNSHWIRQPPGKGLEWIGYIHYSGSINYNPSLKSRVTISRDTSKNQFSLKLSSVTAADTAVYYCARNYGSIYVNYFDYWGQGTLVTVSS
VL: EIVLTQSPATLSLSPGERATLSCSASSSVSYMYWYQQKPGQAPRPLIYRTSNLASGIPARFSGSGSGTDFTLTISSLEPEDFAVYYCQQYHSYPTFGGGTKVEIK
notes: IgG1 kappa
B17: SA301a HC-T57D (antibody, name in Kabat numbering, V domains shown)
VH: QVQLQESGPGLVKPSQTLSLTCTVSGYSITSDYNSHWIRQPPGKGLEWIGYIHYSGSDNYNPSLKSRVTISRDTSKNQFSLKLSSVTAADTAVYYCARNYGSIYVNYFDYWGQGTLVTVSS
VL: EIVLTQSPATLSLSPGERATLSCSASSSVSYMYWYQQKPGQAPRPLIYRTSNLASGIPARFSGSGSGTDFTLTISSLEPEDFAVYYCQQYHSYPTFGGGTKVEIK
notes: IgG1 kappa
B18: SA301a HC-T57A (antibody, name in Kabat numbering, V domains shown)
VH: QVQLQESGPGLVKPSQTLSLTCTVSGYSITSDYNSHWIRQPPGKGLEWIGYIHYSGSANYNPSLKSRVTISRDTSKNQFSLKLSSVTAADTAVYYCARNYGSIYVNYFDYWGQGTLVTVSS
VL: EIVLTQSPATLSLSPGERATLSCSASSSVSYMYWYQQKPGQAPRPLIYRTSNLASGIPARFSGSGSGTDFTLTISSLEPEDFAVYYCQQYHSYPTFGGGTKVEIK
notes: IgG1 kappa
B19: SA301a HC-T57G (antibody, name in Kabat numbering, V domains shown)
VH: QVQLQESGPGLVKPSQTLSLTCTVSGYSITSDYNSHWIRQPPGKGLEWIGYIHYSGSGNYNPSLKSRVTISRDTSKNQFSLKLSSVTAADTAVYYCARNYGSIYVNYFDYWGQGTLVTVSS
VL: EIVLTQSPATLSLSPGERATLSCSASSSVSYMYWYQQKPGQAPRPLIYRTSNLASGIPARFSGSGSGTDFTLTISSLEPEDFAVYYCQQYHSYPTFGGGTKVEIK
notes: IgG1 kappa
B20: SA301a HC-Y59A (antibody, name in Kabat numbering, V domains shown)
VH: QVQLQESGPGLVKPSQTLSLTCTVSGYSITSDYNSHWIRQPPGKGLEWIGYIHYSGSTNANPSLKSRVTISRDTSKNQFSLKLSSVTAADTAVYYCARNYGSIYVNYFDYWGQGTLVTVSS
VL: EIVLTQSPATLSLSPGERATLSCSASSSVSYMYWYQQKPGQAPRPLIYRTSNLASGIPARFSGSGSGTDFTLTISSLEPEDFAVYYCQQYHSYPTFGGGTKVEIK
notes: IgG1 kappa
B21: SA301a HC-T57N (antibody, name in Kabat numbering, V domains shown)
VH: QVQLQESGPGLVKPSQTLSLTCTVSGYSITSDYNSHWIRQPPGKGLEWIGYIHYSGSNNYNPSLKSRVTISRDTSKNQFSLKLSSVTAADTAVYYCARNYGSIYVNYFDYWGQGTLVTVSS
VL: EIVLTQSPATLSLSPGERATLSCSASSSVSYMYWYQQKPGQAPRPLIYRTSNLASGIPARFSGSGSGTDFTLTISSLEPEDFAVYYCQQYHSYPTFGGGTKVEIK
notes: IgG1 kappa
B22: SA301a HC-T57V (antibody, name in Kabat numbering, V domains shown)
VH: QVQLQESGPGLVKPSQTLSLTCTVSGYSITSDYNSHWIRQPPGKGLEWIGYIHYSGSVNYNPSLKSRVTISRDTSKNQFSLKLSSVTAADTAVYYCARNYGSIYVNYFDYWGQGTLVTVSS
VL: EIVLTQSPATLSLSPGERATLSCSASSSVSYMYWYQQKPGQAPRPLIYRTSNLASGIPARFSGSGSGTDFTLTISSLEPEDFAVYYCQQYHSYPTFGGGTKVEIK
notes: IgG1 kappa

What follows are binders tested against T1, human IL-18BP (assay: BLI, apparent KD).

Binder	Kd [nM]
B1	0.46
B2	0.45
B3	0.25
B4	0.18
B5	1.74
B6	0.17
B7	1
B8	0.37
B9	0.52
B10	0.97
B11	0.91
B12	0.67
B13	0.32
B14	0.42
B15	1.22
B16	0.28
B17	1.73
B18	0.9
B19	0.11
B20	0.35
B21	0.86
B22	0.36
